Assay results published in patent publication US11879149B2, “Quantification method of ethanolamine phosphate, oxidoreductase for quantification, composition for quantification, kit for quantification and sensor for quantification” (KIKKOMAN CORPORATION, priority 2018, dated 2024).

B1: LaTDH: large subunit of taurine dehydrogenase from Paracoccus denitrificans, amino acid sequence SEQ ID NO: 1, expressed in E. coli (protein)
chain: MQAIEKRAGALPYDPLYDPVTARGLGPRSDYAPTYWIGTAGAPPPDDGPVTGDMDADVVVIGSGYTGLSCALHLAKMHGIKAVVLEANGVAYGCSTRNGGQAQVSSGRLKRSQWIERWGLDVARRLHAEVCEGFDLFRGLIRDHAIDCDPQDGGHYYIAHKASAMPALEKETALLRDTFGYDARMISRDELHETVARDQEAHGAMWEADGVGIHAAKLAFGYLRAARELGARVHVDSPVQGWEYRNGVHHLRTPGGTVRARRVAVATAAYAPRSLHPRLRDRLMPIMSNSIVTRVLTPAELEAVGIRKLSPLTDTRTLRHYYRLLPDNRLQIGSRAAITGRDAANPAHLDALREGMARKFPALRGIALDYSWWGWVDVSHDMMPRITGLPDLPGAFYALGYGGNGVMYSAMAGRRMAQLVAGEAVPDLPIFNNELPHEGWRTPFRRLGQWGLYKFYHYRDERR
modifications: Paracoccus denitrificans
B2: LcAOX: amine oxidase derived from Lichtheimia corymbifera, GenBank ID CDH56199.1, SEQ ID NO: 15 (protein, listed as Lichtheimia corymbifera)
chain: MSSSSSATPKPHPLDPLSADEIRRAAAIIREKRGQDTSYVFNSLTLKEPAKQQMMLYLGWVNSSSQPKPVTIDREVFAVLIDRPSGLVHEMTVNLDKSAVTSWNKVEGRQPTINIFEMLEAEREILKDERVKDQCRQLGITDMSMVYADPWGVGYHEIKGKRLVQALLYARTSPDDNQYAHPLDFNPLYDLNAKKVLDIVVSKRRNSSFERPVIPMANHHFLPEHLGEDRLRKDIKPIEITQPQGVSFSIRDGHQLHWQKWDMHLSFNYREGLVINNLSYRDMDSTVRPIIYRMSLAEMVVPYANPYKPYNHKMAFDVGEYGLGNLTNSLELGCDCVGKIGYLDAVLSDLNGDPWHIPNAICIHEEDTGLLFKHSDYRTGKAHSARSRRLVISHIVTAANYDYGLYYYFYQDGTIQYEVKATGELNTQVLAEDEDAAPYGTIVAPQVDAQHHQHLFSMRIDPMLDGPNNSVAEVDVVASDLPVGHPHNSVGNSFYPVTKVFNTTDEAKTMASVERHRTWKIINESKIHPYAKQPVGFKMMAHPTPPLLPKPGSIVYERAMFASKTLWVTPHNDKQLYPGGFYCYQSEPSENLGLPQWTKETQNVRDTDIVCWLNFGITHIPRVEDFPIMPIETCGIMLKPANFFLCNPGIDIPPSTRQSTKSAYANDATCCRKNNL
B3: LrHP: hypothetical protein derived from Lichtheimia ramosa, GenBank ID CDS02610.1, SEQ ID NO: 20 (protein, listed as Lichtheimia ramosa)
chain: MSSSPIKPYPLDPLTADEIRRAAALIRETRGQDTTYVFNSLTLKEPSKQQMMSYLGWTNSPSHPKPVTIDREVFAVLIDRPSGLVHEMTVNLDKNQVTRWNKVEGRQPTVNVFEMLEAEREILKDERVKEQCRQLGINDMSMVFADPWGVGYHEIKGKRLVQALMYARTSPDDNQYAHPLDFNPLYDVNAKKVIDIIVSKRRNSSFDRPVIPMANHHFLPEHLGQDRLRKDIKPIEITQPQGVSFSIRDGHQLHWQKWDMHLSFNYREGLVINNLSYRDMDGTVRPIIYRMSLSEMVVPYANPYKPYNHKMAFDVGEYGLGNLTNSLELGCDCVGKICYLDATLSDLNGDPWQIPNAICIHEEDTGLLFKHTDYRTGKAHSARSRRLVISHIVTAANYDYGLYYYFYQDGTIQYEVKATGELNTQVLAADEDAAPYGTIVAPQVDAQHHQHLFSMRIDPMVDGPNNSVAEVDVVASDLPVGHPHNSIGNSFYPVTKVFNTTDEAKTMASIERHRSWKIINENKIHPYAKQPVGFKMMAHPTPPLLPKPGSIVYERAMFASKTLWVTPYNEEQRYPGGFYCYQSEPSENLGLPQWTKETQNVRDTDIVCWLNFGITHIPRVEDFPIMPIETCGVMLKPVNFFLGNPGIDIPPSTRQSTKSAYATEATCCRKNNL
B4: SrAOX3925: amine oxidase derived from Syncephalastrum racemosum, GenBank ID ORZ03925.1, SEQ ID NO: 25 (protein, listed as Syncephalastrum racemosum)
chain: MTIVSPSHPLDPLTPSEIRHVAEIVRATRSPDDKTPRDYIFSSICLKEPHKDKTLAYLQSVSEEAAALMPEREALVILIDRPSGLVHEILVSITDEKVKSAKTLKNVQPTQHVLEMIEAEKIITKDPSVIEECRKLGITDMKNVYADPWTVGYHAQFKSSKRLMQALMYMRTSPDDNQYAHPLDFVPIYDVNAQKVVEILRQETSEASKYDRPTVPLENHQFLPEHIGVENLRKDIKPIEITQPEGVSFTVRGREIEWQNWSMHVGFNYREGVIINNVSYKDKGNVRPLFYRVSVSEMVVPYAHPKEPFNHKMAFDVGEYGLGNLTNSLELGCDCLGSIYYMDGVCNNLDGEPWVIPNAICIHEEDTGLLFKHTDYRTDKAHSARSRRLVISQIVTAANYDYGLYFYFYQDGTFQYEVKATGELNTQVFAEDENPAPYGTAVAPQVVGQHHQHLFMMRIDPMLDGRLNSVAQVDVLPSEYPVGHVENPIGNAFSPITTIYSDTTEAQAHGNLESSRTWKIINESKLHPYTKEPVGYKLVSPNTPPMLPKPGSLVYERAKFATKTIWVTPYDPDQIYPAGFYCSQSPGDDSMGLPAWTKEPQSVRGRDVVVWLTFGLTHIPRVEDFPVMPVETCGWALKACNFFLGNPGIDIPAAQKGTSKRVNGACCA
B5: SrAOX3926: amine oxidase derived from Syncephalastrum racemosum, GenBank ID ORZ03926.1, SEQ ID NO: 30 (protein, listed as Syncephalastrum racemosum)
chain: MTVSAVIHPLDPLSPEEIRHASAIIRRERSADKTIFIFNSISLREPPKDQVLAHFGWAAGPKPAQIDRQAFVVLIDRPSGLVHEIIVSLTTSSVVSWNRKQGVQPTLHVQEMLEAEEVMLKDERVIEECRKLGIEDMSLVFADTWGVGWHKTKGKRLMQALMYMRTSPDDNQYAHPLDFTPLYDVNEQKVIDVLVAKRRNSKFERPVIPRADHQFLPEHLGEGNLRKDIKPIEIIQPEGVSFQIRGHEIDWQKWNLHIGFNYREGLVISNVSYKDMDGTVRPVFYRVSLAEMVVPYANPYEPYNHKMAFDVGEYGLGNLTNSLELGCDCVGSIFYMDGVCSDLKGDAWVIPNAICIHEEDTGLLFKHTDFRNNKAHSARSRRLVISHIVTAANYDYGLYYYFYQDGTFQYEVKATGELNTHVLAEDENPAPYGTIVAPQIDAQHHQHLFSMRIDPMVDGPTNSVAQVDVVASDLPVGHPDNAVGNAFSPITTIYANTDEAQARANGETSRYWKIINEDKIHPYTREPVGFKLMCPNTPPMLPKPGSIAYERAVFASKTVWVTPYDAEQLFPGGFYCYQSDPADRLGLPEWTKGKKDVKNKDIVLWLTFGLTHIPRVEDFPIMPVETCGFMLKPCNFFLANPGIDIPASDKHSTKSAYAHALTNGANGTGNGSTNGSSCCNKNY
B6: SrEAOX: ethanolamine oxidase derived from Syncephalastrum racemosum, GenBank ID BAU20376.1, SEQ ID NO: 35 (protein, listed as Syncephalastrum racemosum)
chain: MTLPTTIHPLDPLSPEEIRHVSEIIRKQRAADETTYIFNSIALREPPKEQILAHFGWTDGPKPVQIDRQAFAVLIDRPSGLVHEIIVSITTASIVSWETKEGVQPTLHVQEMLEAEQVMLKDERVIEECRKLGIEDMSMVFADTWGVGWHKTKGKRLMQALMYMRTSPDDNQYAHPLDFTPLYDVNEQKVIDVLVAKRRNSKFERPVIPRADRQFLPEHLGEENLRKDIKPIEITQPQGVSFQIRGHEIDWQKWNLHVGFNYREGLVINNVSYKDMDGTVRPMFYRVSLAEMVVPYANPYEPYNHKMAFDVGEYGLGNLTNSLELGCDCVGSIFYMDGVCSDIKGDAWVIPNAICIHEEDTGLLFKHTDFRNNKAHSARSRRLVISHIVTAANYDYGLYYYFYQDGTFQYEVKATGELNTHVLAEDEDPAPYGTIVAPQVDAQHHQHLFSMRIDPMVDGPTNSVAQVDVVASDLPVGHPDNAVGNAFSPVTTIYADTDEARARANGETSRYWKIINETRIHPYTKEPVGFKLMCPNTPPMLPKPGSIAYERAVFASNTVWVTPYDAEQLFPGGFYCYQSDPADRLGLPEWTREKKDVKNKDIVLWLTFGLTHIPRVEDFPIMPVETCGFMLKPCNFFLANPGIDIPASDRHSSKSAYAPAVANGEYGITNGTTNGSSCCSKGH

Key:
Format in all cases: biochemical
[1] = Evaluation of substrate specificity of crude enzyme solution (PMS/DCIP, 96-well plate); conditions: 5 mM substrate, potassium phosphate buffer pH 8.0, PMS
Protocol: An activity measurement using 2, 6-Dichlorophenolindophenol (DCIP) was performed in a 96-well plate. […] As the substrate, taurine (manufactured by Fujifilm Wako Pure Chemical Corporation), ethanolamine phosphate (EAP, manufactured by Fujifilm Wako Pure Chemical Corporation), ethanolamine (manufactured by Tokyo Chemical Industry, Co., Ltd.), and benzylamine (manufactured by Tokyo Chemical Industry Co., Ltd.) were used.

[2] = Oxidase activity measurement of LcAOX, LrHP, SrAOX3925, SrAOX3926, SrEAOX (4-AA/TOOS/POD, A555); conditions: pH 7.5; for oxidase activity of the crude enzymatic solution against EAP: crude enzyme solution, 50 mM EAP final; for oxidase activity of the crude enzymatic solution against EAP / oxidase activity against EAP after being purified: 37° C.; for oxidase activity against EAP after being purified: purified preparation
Protocol: Oxidase activity was measured for LcAOX, LrHP, SrAOX3925, SrAOX3926, SrEAOX expressed by the methods described above. After incubating 580 μl of a reagent consisting of the composition of Table 12 at 37° C. for 5 minutes, 20 μl of a substrate solution (1500 mM EAP) was added and mixed, and the amount of change at A555 (ΔAS) per 1 minute at 37° C. was measured using the spectrophotometer (U-3900, manufactured by Hitachi High-Tech Science Corporation). Subsequently, 20 μl of ion-exchanged water was added instead of the substrate solution and mixed, and the amount of change at A555 (ΔA0) per 1 minute at 37° C. was measured.
The oxidase activity was calculated based on the following formula: Oxidase activity (U/ml)=(ΔAS−ΔA0)×600.0×df/(39.2×0.5×x)=30.6×(ΔAS−ΔA0)×df/x • 39.2: Millimolar extinction coefficient (mM^−1cm^−1) of 4-AA-TOOS Condensation dye for 555 nm-wavelength light • df: Dilution rate of enzyme solution (Quantification of EAP by LrHP)

[3] = Quantification of EAP by LrHP by electrochemical methods (chronoamperometry); conditions: +600 mV (Ag/AgCl); 0 μM to 1400 μM and 0 μM to 170 μM EAP; FIG. 6, FIG. 7
Protocol: 20 μl of 150 mM Bicine-NaOH buffer solution (pH 7.5), 15 μl of 1.5 M potassium chloride solution, and 5 μl of LrHP solution (0.14 U/ml) were applied and mixed on a SCREEN-PRINTED ELECTRODES (manufactured by DropSens, Product Number DRP-C110). A dedicated connector (DRP-CAC) was then used to connect to ALS electrochemical analyzer 814D. Chronoamperometric measurements were performed at +600 mV (Ag/AgCl). Subsequently, 2 μl of EAP solution at each concentration was added, and the current value at 100 seconds after the initiation of measurement was recorded. Similar experiments were carried out using 5 μl of ultrapure water (ion-exchanged water) instead of LrHP solution as a control experiment.

| Molecule | oxidase activity of the crude enzymatic solution against EAP [2] | oxidase activity against EAP after being purified [2] | also measured |
| --- | --- | --- | --- |
| B1 | – | – | degree of loss of blue color derived from DCIP (dehydrogenase activity), substrate benzylamine [1]: did not react; degree of loss of blue color derived from DCIP (dehydrogenase activity), substrate ethanolamine [1]: did not react; degree of loss of blue color derived from DCIP (dehydrogenase activity), substrate ethanolamine phosphate [1]: also reacted; degree of loss of blue color derived from DCIP (dehydrogenase activity), substrate taurine [1]: reacted most |
| B2 | 1.8 U/L | 0.11 U/ml | – |
| B3 | 5.8 U/L | 0.31 U/ml | oxidase activity of purified LrHP solution used in the quantification reagent ([2]; final concentration of 50 mM EAP): 0.14 U/ml (*purified LrHP solutions); current value at 100 seconds after the initiation of measurement with increasing EAP [3]: current value also increased |
| B4 | 2.6 U/L | 0.16 U/ml | – |
| B5 | 0.2 U/L | – | – |
| B6 | 16 U/L | – | – |
